Source: the supplement of paper PMC12667976
± gives the standard error.

B1: library; numbered along this chain (parent)
chain: MATDAALRRLLRLHRTEIAVAVDSAFPLLHALADHDVVPEDKFQETLHLKEKEGCPQAFHALLSWLLTQDSTAILDFWRVLFKDYNLERYGRLQPILDSFPKDVDLSQPRKGRKPPAVPKALVPPPRLPTKRKASEEARAAAPAALTPRGTASPGSQLKAKPPKKPESSAEQQRLPLGNGIQTMSASVQRAVAMSSGDVPGARGAVEGILIQQVFESGGSKKCIQVGGEFYTPSKFEDSGSGKNKARSSSGPKPLVRAKGAQGAAPGGGEARLGQQGSVPAPLALPSDPQLHQKNEDECAVCRDGGELICCDGCPRAFHLACLSPPLREIPSGTWRCSSCLQATVQEVQPRAEEPRPQEPPVETPLPPGLRSAGEEVRGPPGEPLAGMDTTLVYKHLPAPPSAAPLPGLDSSALHPLLCVGPEGQQNLAPGARCGVCGDGTDVLRCTHCAAAFHWRCHFPAGTSRPGTGLRCRSCSGDVTPAPVEGVLAPSPARLAPGPAKDDTASHEPALHRDDLESLLSEHTFDGILQWAIQSMARPAAPFPS

Variants of: B1
Assay: AIRE transcriptional activation functional score (insulin promoter-GFP; nonsense median 0, synonymous median 1) (normalised score); higher = higher AIRE activity (more reporter activation)
Conditions: with insulin promoter-GFP reporter in HEK293
Protocol: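 Deep mutational scan of full-length human AIRE (codon-optimized cDNA, DT-POPCode NNN libraries over three regions) integrated at a Bxb1 landing pad in HEK293 cells carrying an insulin core promoter-GFP reporter at a Flp-In site. Cells were sorted for the top 10% GFP about 14 days after transfection. Variant frequency log-ratios (select vs non-select, TileSeq) were rescaled so that the nonsense median is 0 and the synonymous median is 1, then averaged over biological replicates.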

In order of rising “AIRE transcriptional activation functional score” value:
1. L81K  -1.81 ± 0.23
2. T68Q  -1.24 ± 0.071
3. R12Q  -1.11 ± 0.89
4. F43E  -1.08 ± 0.65
5. E51Y  -0.775 ± 0.19
6. E17N  -0.662 ± 0.64
7. F100M  -0.57 ± 0.1
8. D70W  -0.512 ± 0.13
9. L81V  -0.437 ± 0.64
10. N86F  -0.398 ± 0.45
11. G477T  -0.261 ± 0.17
12. F236T  -0.222 ± 0.095
13. T3I  -0.128 ± 0.25
14. H523R  -0.128 ± 0.24
15. S195W  -0.0899 ± 0.062
16. A451F  -0.0649 ± 0.075
17. H523C  -0.042 ± 0.14
18. L67F  -0.0388 ± 0.21
19. S249E  -0.0377 ± 0.067
20. L128D  -0.0224 ± 0.18
21. A31V  -0.00796 ± 0.32
22. W65V  -0.0047 ± 0.31
23. E329K  0.00515 ± 0.43
24. W78A  0.0338 ± 0.39
25. E229L  0.0432 ± 0.24
26. L81W  0.0861 ± 0.077
27. C434I  0.0869 ± 0.1
28. T72W  0.0941 ± 0.059
29. Q69K  0.102 ± 0.77
30. E229I  0.102 ± 0.31
31. Q69C  0.105 ± 0.28
32. Q69P  0.118 ± 0.37
33. Y394T  0.126 ± 0.099
34. P163E  0.136 ± 0.17
35. K50W  0.149 ± 0.11
36. C434P  0.202 ± 0.26
37. R89C  0.253 ± 0.36
38. C449T  0.263 ± 0.08
39. Q94S  0.266 ± 0.3
40. A496D  0.267 ± 0.14
41. D312K  0.281 ± 0.1
42. G498D  0.318 ± 0.12
43. P400D  0.319 ± 0.071
44. D514V  0.335 ± 0.26
45. P162V  0.356 ± 0.46
46. P148G  0.361 ± 0.76
47. P539H  0.373 ± 0.15
48. C446F  0.403 ± 0.22
49. P416Y  0.419 ± 0.13
50. T68H  0.424 ± 0.27
51. D515H  0.453 ± 0.15
52. T447Y  0.458 ± 0.2
53. P497E  0.495 ± 0.076
54. V436R  0.525 ± 0.33
55. A186G  0.548 ± 0.27
56. G204C  0.575 ± 0.088
57. W78E  0.582 ± 0.16
58. S545P  0.59 ± 0.21
59. F230R  0.603 ± 0.38
60. S71I  0.605 ± 0.47
61. G274E  0.611 ± 0.097
62. R149V  0.621 ± 0.44
63. Y231M  0.624 ± 0.023
64. A451D  0.631 ± 0.11
65. G424E  0.64 ± 0.24
66. P497W  0.669 ± 0.11
67. A117S  0.692 ± 0.59
68. A271Q  0.693 ± 0.16
69. H448R  0.695 ± 0.34
70. T441R  0.696 ± 0.32
71. Y231I  0.701 ± 0.1
72. L291W  0.706 ± 0.12
73. L291T  0.708 ± 0.16
74. K50I  0.717 ± 0.35
75. C302W  0.72 ± 0.026
76. F230D  0.723 ± 0.12
77. G424Y  0.738 ± 0.57
78. A386N  0.757 ± 0.088
79. P148D  0.772 ± 0.85
80. G369R  0.772 ± 0.1
81. S332A  0.774 ± 0.14
82. V192G  0.777 ± 0.18
83. P315E  0.802 ± 0.13
84. A145I  0.806 ± 0.36
85. T3N  0.808 ± 0.74
86. E298S  0.818 ± 0.26
87. R190H  0.858 ± 0.36
88. P143I  0.862 ± 0.41
89. R272P  0.879 ± 0.33
90. A451K  0.893 ± 0.1
91. G498I  0.895 ± 0.12
92. F215D  0.909 ± 0.29
93. G408A  0.914 ± 0.2
94. V436G  0.916 ± 0.37
95. S187C  0.918 ± 0.059
96. P367D  0.924 ± 0.21
97. P539T  0.931 ± 0.2
98. A413V  0.931 ± 0.37
99. D502V  0.937 ± 0.079
100. P380K  0.944 ± 0.23
101. S196D  0.944 ± 0.13
102. K159E  0.955 ± 0.22
103. I181M  0.958 ± 0.058
104. S196N  0.962 ± 0.096
105. S250H  0.963 ± 0.23
106. A141T  0.967 ± 0.32
107. A142S  0.968 ± 0.35
108. G498Q  0.969 ± 0.11
109. Y394I  0.972 ± 0.15
110. S402T  0.974 ± 0.18
111. P355V  1 ± 0.13
112. T390R  1.02 ± 0.31
113. T468F  1.02 ± 0.15
114. P360R  1.02 ± 0.29
115. S135L  1.04 ± 0.4
116. P398K  1.04 ± 0.097
117. A140D  1.07 ± 0.13
118. L341Q  1.08 ± 0.17
119. T441I  1.08 ± 0.17
120. V348I  1.08 ± 0.076
121. D410A  1.09 ± 0.064
122. P326L  1.1 ± 0.25
123. T334L  1.12 ± 0.21
124. N179K  1.14 ± 0.18
125. G219L  1.14 ± 0.27
126. R316P  1.14 ± 0.23
127. P143W  1.15 ± 0.039
128. A413W  1.15 ± 0.072
129. E229G  1.15 ± 0.093
130. R456A  1.16 ± 0.58
131. P380Q  1.16 ± 0.17
132. R445K  1.17 ± 0.26
133. P282Y  1.17 ± 0.27
134. D41E  1.17 ± 0.67
135. S332L  1.17 ± 0.25
136. S169N  1.18 ± 0.7
137. V436N  1.19 ± 0.082
138. E53W  1.2 ± 0.36
139. G251D  1.2 ± 0.26
140. P357L  1.2 ± 0.13
141. A5I  1.2 ± 0.62
142. G180A  1.21 ± 0.29
143. S234Q  1.22 ± 0.097
144. N179C  1.26 ± 0.56
145. G178S  1.26 ± 0.51
146. A61H  1.26 ± 0.14
147. G333Y  1.26 ± 0.36
148. A403L  1.29 ± 0.44
149. P148C  1.31 ± 0.56
150. K245A  1.33 ± 0.067
151. V436C  1.33 ± 0.37
152. E329N  1.33 ± 0.079
153. Q358G  1.34 ± 0.21
154. S169V  1.35 ± 0.67
155. G251W  1.36 ± 0.093
156. P367Y  1.39 ± 0.13
157. E53C  1.45 ± 0.33
158. P148V  1.45 ± 0.56
159. A140I  1.46 ± 0.72
160. V118P  1.47 ± 0.62
161. P368N  1.58 ± 0.068
162. S71D  1.61 ± 0.27
163. S156W  1.64 ± 0.071
164. D103E  1.66 ± 0.41
165. V377E  1.81 ± 0.17
166. V301W  2 ± 0.097
167. A6Y  2.12 ± 1.1
